Test system: H3K4me peptides / ING4 PHD finger
Assay: Biotinylated histone peptide pull-down, Western analysis
Assay type: binding
Details: full-length vs PHD-deleted ING4

B1: ING4ΔPHD: ING4 derivative lacking the PHD finger (aa 1–194) (protein)
chain: MAAGMYLEHYLDSIENLPFELQRNFQLMRDLDQRTEDLKAEIDKLATEYMSSARSLSSEEKLALLKQIQEAYGKCKEFGDDKVQLAMQTYEMVDKHIRRLDTDLARFEADLKEKQIESSDYDSSSSKGKKKGRTQKEKKAARARSKGKNSDEEAPKTAQKKLKLVRTSPEYGMPSVTFGSVHPSDVLDMPVDPN
modifications: left off: GST (inferred from the vector pGEX6P1), end not stated, state not stated
- recognition of methylated H3K4 peptides in pull-down: does not
